Test results as given in IntAct's records for PubMed 15744307.

B1: Short transient receptor potential channel 3 (Homo sapiens), Q13507 (parent)
chain: MSTKVRKCKEQARVTFPAPEEEEDEGEDEGAEPQRRRRGWRGVNGGLEPRSAPSQREPHGYCPPPFSHGPDLSMEGSPSLRRMTVMREKGRRQAVRGPAFMFNDRGTSLTAEEERFLDAAEYGNIPVVRKMLEESKTLNVNCVDYMGQNALQLAVGNEHLEVTELLLKKENLARIGDALLLAISKGYVRIVEAILNHPGFAASKRLTLSPCEQELQDDDFYAYDEDGTRFSPDITPIILAAHCQKYEVVHMLLMKGARIERPHDYFCKCGDCMEKQRHDSFSHSRSRINAYKGLASPAYLSLSSEDPVLTALELSNELAKLANIEKEFKNDYRKLSMQCKDFVVGVLDLCRDSEEVEAILNGDLESAEPLEVHRHKASLSRVKLAIKYEVKKFVAHPNCQQQLLTIWYENLSGLREQTIAIKCLVVLVVALGLPFLAIGYWIAPCSRLGKILRSPFMKFVAHAASFIIFLGLLVFNASDRFEGITTLPNITVTDYPKQIFRVKTTQFTWTEMLIMVWVLGMMWSECKELWLEGPREYILQLWNVLDFGMLSIFIAAFTARFLAFLQATKAQQYVDSYVQESDLSEVTLPPEIQYFTYARDKWLPSDPQIISEGLYAIAVVLSFSRIAYILPANESFGPLQISLGRTVKDIFKFMVLFIMVFFAFMIGMFILYSYYLGAKVNAAFTTVEESFKTLFWSIFGLSEVTSVVLKYDHKFIENIGYVLYGIYNVTMVVVLLNMLIAMINSSYQEIEDDSDVEWKFARSKLWLSYFDDGKTLPPPFSLVPSPKSFVYFIMRIVNFPKCRRRRLQKDIEMGMGNSKSRLNLFTQSNSRVFESHSFNSILNQPTRYQQIMKRLIKRYVLKAQVDKENDEVNEGELKEIKQDISSLRYELLEDKSQATEELAILIHKLSEKLNPSMLRCE
partner: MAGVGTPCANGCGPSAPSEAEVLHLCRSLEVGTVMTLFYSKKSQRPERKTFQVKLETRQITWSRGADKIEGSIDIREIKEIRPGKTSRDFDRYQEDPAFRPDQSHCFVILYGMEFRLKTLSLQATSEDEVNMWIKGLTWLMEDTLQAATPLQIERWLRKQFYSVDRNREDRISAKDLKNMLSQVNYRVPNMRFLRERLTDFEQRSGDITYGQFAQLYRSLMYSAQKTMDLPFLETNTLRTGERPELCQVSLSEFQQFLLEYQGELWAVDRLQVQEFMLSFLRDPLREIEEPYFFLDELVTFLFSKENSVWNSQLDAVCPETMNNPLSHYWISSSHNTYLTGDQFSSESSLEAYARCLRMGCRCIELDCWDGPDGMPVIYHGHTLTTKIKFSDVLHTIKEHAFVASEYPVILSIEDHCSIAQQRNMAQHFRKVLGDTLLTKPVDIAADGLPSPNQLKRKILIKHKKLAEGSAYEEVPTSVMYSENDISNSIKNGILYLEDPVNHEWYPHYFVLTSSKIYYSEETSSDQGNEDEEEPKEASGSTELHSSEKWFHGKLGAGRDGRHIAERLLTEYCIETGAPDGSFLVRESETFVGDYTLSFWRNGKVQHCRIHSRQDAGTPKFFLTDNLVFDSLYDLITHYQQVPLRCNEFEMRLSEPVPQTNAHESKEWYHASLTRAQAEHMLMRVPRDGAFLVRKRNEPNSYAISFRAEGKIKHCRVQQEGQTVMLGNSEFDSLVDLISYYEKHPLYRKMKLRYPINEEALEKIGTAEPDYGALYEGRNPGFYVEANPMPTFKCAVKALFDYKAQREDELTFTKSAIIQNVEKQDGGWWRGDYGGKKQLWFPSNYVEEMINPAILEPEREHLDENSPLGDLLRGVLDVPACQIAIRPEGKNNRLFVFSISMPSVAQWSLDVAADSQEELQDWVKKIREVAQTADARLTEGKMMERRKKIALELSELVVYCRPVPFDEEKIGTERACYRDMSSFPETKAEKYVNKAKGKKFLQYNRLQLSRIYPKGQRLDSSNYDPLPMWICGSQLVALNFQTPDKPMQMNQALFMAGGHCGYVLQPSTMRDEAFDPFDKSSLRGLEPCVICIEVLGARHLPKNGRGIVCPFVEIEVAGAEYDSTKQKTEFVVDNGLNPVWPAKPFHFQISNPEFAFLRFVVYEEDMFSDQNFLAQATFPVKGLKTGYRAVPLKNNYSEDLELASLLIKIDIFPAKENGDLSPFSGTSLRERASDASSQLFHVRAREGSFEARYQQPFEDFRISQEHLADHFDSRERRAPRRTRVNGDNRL

Variants of: B1
Conditions: with plcg1_rat Plcg1, P10686

Effect of a mutation on the interaction, decreasing interaction:
F116A
E113A
L117A
